Experimental data: PMC9164069, “NADPH–Cytochrome P450 Reductase Mediates the Fatty Acid Desaturation of ω3 and ω6 Desaturases from Mortierella alpina” (Current Issues in Molecular Biology, 2022)

What was measured:
NADPH-CytP450R = biological target: T1, NADPH-CytP450R (Homo sapiens, UniProt P16435); experiment: absorption shift of Cytb5 on reduction ([…] to […] nm); assay type: biochemical; settings: pH 7.5, 25 °C; 100 mM Hepes, 150 mM NaCl, 0.25 µM CytP450R, 5 µM human Cytb5, 5 µM NADPH
T1 construct: gene POR; soluble catalytic domain, C-terminal 614 residues (VRESSFV through SLDVWS), N-terminal His6 tag (pET15b), E. coli BL21(DE3), about 70 kDa
T1 sequence (P16435 64-677): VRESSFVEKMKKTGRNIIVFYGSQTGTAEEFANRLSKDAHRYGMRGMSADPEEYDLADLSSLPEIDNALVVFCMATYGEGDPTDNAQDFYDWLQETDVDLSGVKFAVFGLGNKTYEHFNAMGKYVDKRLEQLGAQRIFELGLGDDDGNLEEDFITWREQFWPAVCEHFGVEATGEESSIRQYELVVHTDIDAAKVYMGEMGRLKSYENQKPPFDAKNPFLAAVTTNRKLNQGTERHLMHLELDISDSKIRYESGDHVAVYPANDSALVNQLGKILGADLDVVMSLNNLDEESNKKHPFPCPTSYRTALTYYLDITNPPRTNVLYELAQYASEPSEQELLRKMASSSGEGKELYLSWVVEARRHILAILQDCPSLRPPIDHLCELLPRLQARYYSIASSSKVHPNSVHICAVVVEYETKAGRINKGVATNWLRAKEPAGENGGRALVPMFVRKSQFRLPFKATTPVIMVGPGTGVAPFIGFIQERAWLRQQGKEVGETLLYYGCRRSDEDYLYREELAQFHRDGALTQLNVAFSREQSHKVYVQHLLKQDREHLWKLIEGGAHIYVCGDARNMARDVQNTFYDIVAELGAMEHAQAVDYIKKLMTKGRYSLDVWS

purified protein [1] = substrate: CCCCCC/C=C\CCCCCCCC(=O)SCCNC(=O)CCNC(=O)[C@H](O)C(C)(C)COP(=O)(O)OP(=O)(O)OC[C@H]1O[C@@H](n2cnc3c(N)ncnc32)[C@H](O)[C@@H]1OP(=O)(O)O; experiment: purified protein; assay type: biochemical, Mortierella alpina; settings: pH 7.5, 28 °C, 25 mM Hepes, 150 mM NaCl, 1 µM NADPH, 100 nM desaturase, 0.5 µM human Cytb5, 1 µM human CytP450R, 0.002% Fos-16
purified protein [2] = substrate: CCCCCCCC/C=C\CCCCCCCC(=O)SCCNC(=O)CCNC(=O)[C@H](O)C(C)(C)COP(=O)(O)OP(=O)(O)OC[C@H]1O[C@@H](n2cnc3c(N)ncnc32)[C@H](O)[C@@H]1OP(=O)(O)O; experiment: purified protein; assay type: biochemical, Mortierella alpina; settings: pH 7.5, 28 °C, 25 mM Hepes, 150 mM NaCl, 1 µM NADPH, 100 nM desaturase, 0.5 µM human Cytb5, 1 µM human CytP450R, 0.002% Fos-16
purified protein [3] = substrate: CCCCC/C=C\C/C=C\CCCCCCCC(=O)SCCNC(=O)CCNC(=O)[C@H](O)C(C)(C)COP(=O)(O)OP(=O)(O)OC[C@H]1O[C@@H](n2cnc3c(N)ncnc32)[C@H](O)[C@@H]1OP(=O)(O)O; experiment: purified protein; assay type: biochemical, Mortierella alpina; settings: pH 7.5, 28 °C, 25 mM Hepes, 150 mM NaCl, 1 µM NADPH, 100 nM desaturase, 0.5 µM human Cytb5, 1 µM human CytP450R, 0.002% Fos-16
purified protein [4] = substrate: CCCCC/C=C\C/C=C\C/C=C\CCCCC(=O)SCCNC(=O)CCNC(=O)[C@H](O)C(C)(C)COP(=O)(O)OP(=O)(O)OC[C@H]1O[C@@H](n2cnc3c(N)ncnc32)[C@H](O)[C@@H]1OP(=O)(O)O; experiment: purified protein; assay type: biochemical, Mortierella alpina; settings: pH 7.5, 28 °C, 25 mM Hepes, 150 mM NaCl, 1 µM NADPH, 100 nM desaturase, 0.5 µM human Cytb5, 1 µM human CytP450R, 0.002% Fos-16
purified protein [5] = substrate: CCCCC/C=C\C/C=C\C/C=C\C/C=C\CCCC(=O)SCCNC(=O)CCNC(=O)[C@H](O)C(C)(C)COP(=O)(O)OP(=O)(O)OC[C@H]1O[C@@H](n2cnc3c(N)ncnc32)[C@H](O)[C@@H]1OP(=O)(O)O; experiment: purified protein; assay type: biochemical, Mortierella alpina; settings: pH 7.5, 28 °C, 25 mM Hepes, 150 mM NaCl, 1 µM NADPH, 100 nM desaturase, 0.5 µM human Cytb5, 1 µM human CytP450R, 0.002% Fos-16

With NC(=O)C1=CN([C@@H]2O[C@H](COP(=O)(O)OP(=O)(O)OC[C@H]3O[C@@H](n4cnc5c(N)ncnc54)[C@H](OP(=O)(O)O)[C@@H]3O)[C@@H](O)[C@H]2O)C=CC1 [NADPH] the “absorption shift of Cytb5 on reduction (412 to 422, 521, 554 nm)” value (NADPH-CytP450R) was “when NADPH was added, Cytb5 was instantly reduced”.

B1: M. alpina ω6 desaturase (Mortierella alpina) (protein)
chain: MAPPNTIDAGLTQRHISTSAAPTSAKPAFERNYQLPEFTIKEIRECIPAHCFERSGLRGLCHVAIDLTWASLLFLAATQIDKFENPLIRYLAWPAYWIMQGIVCTGIWVLAHECGHQSFSTSKTLNNTVGWILHSMLLVPYHSWRISHSKHHKATGHMTKDQVFVPKTRSQVGLPPKENAAAAVQEEDMSVHLDEEAPIVTLFWMVIQFLFGWPAYLIMNASGQDYGRWTSHFHTYSPIFEPRNFFDIIISDLGVLAALGALIYASMQLSLLTVTKYYIVPYLFVNFWLVLITFLQHTDPKLPHYREGAWNFQRGALCTVDRSFGKFLDHMFHGIVHTHVAHHLFSQMPFYHAEEATYHLKKLLGEYYVYDPSPIVVAVWRSFRECRFVEDHGDVVFFKK
notes: membrane desaturase expressed in Pichia pastoris (pPink-HC) with 3C site, ZZ-tag and RGS-His10-tag; tags cut off by rhinovirus 3C protease; Fos-Choline-16 solubilized, IgG Sepharose and size exclusion purified
With B1 the Km (purified protein [1]) was 3.9 ± 0.9 µM, the kcat (purified protein [1]) was 0.00333 ± 0.000167 s⁻¹ and the kcat/Km (purified protein [1]) was 667 M⁻¹ s⁻¹. For the same molecule, the Km (purified protein [2]) was 5.4 ± 0.8 µM, the kcat (purified protein [2]) was 0.00833 ± 0.000333 s⁻¹ and the kcat/Km (purified protein [2]) was 1500 M⁻¹ s⁻¹.

B2: M. alpina ω3 desaturase (Mortierella alpina) (protein)
chain: MAPPHVVDEQVRRRIVVEDEIKSKKQFERNYVPMDFTIKEIRDAIPAHLFIRDTTKSILHVVKDLVTIAIVFYCATFIETLPSLALRVPAWITYWIIQGTVMVGPWILAHECGHGAFSDSKTINTIFGWVLHSALLVPYQAWAMSHSKHHKGTGSMTKDVVFIPATRSYKGLPALEKPAVEEEVSEQEHHHHEESIFAETPIYTLGALLFVLTFGWPLYLIVNFSGHEAPHWVNHFQTVAPLYEPHQRKNIFYSNCGIVAMGSILTYLSMVFSPLTVFMYYGIPYLGVNAWIVCITYLQHTDPKVPHFRDNEWNFQRGAACTIDRSFGTIVNHLHHHIGDSHQCHHMFSQMPFYNAVEATKYLKAKLGKYYIFDDTPIAKALYRNWRECKFVEDEGDVVFYKH
notes: as for B1
In the case of B2, the Km (purified protein [3]) is reported as 16.0 ± 2.2 µM, the kcat (purified protein [3]) is reported as 0.11 ± 0.01 s⁻¹ and the kcat/Km (purified protein [3]) is reported as 6830 M⁻¹ s⁻¹. It also gave a Km (purified protein [4]) of 87.8 ± 9.9 µM, a kcat (purified protein [4]) of 0.168 ± 0.00667 s⁻¹ and a kcat/Km (purified protein [4]) of 2000 M⁻¹ s⁻¹. For the same molecule, the Km (purified protein [5]) was 157.0 ± 23.8 µM, the kcat (purified protein [5]) was 0.0233 ± 0.00167 s⁻¹ and the kcat/Km (purified protein [5]) was 167 M⁻¹ s⁻¹.
